The target in assay [1] is T1, C-terminal GFP2-tagged β2-adrenergic receptor (β2-AR/GFP2) (human, UniProt P07550 1-413).
T1 construct: human β2-adrenergic receptor; not shown: GFP2, C-terminal, kept
As to the kind of experiment: MST; lysate of HEK-293 cells with β2-AR/GFP2 kept constant as fluorescent target, P3 titrated in 1:1 dilutions, no agonist; MST buffer with 0.05% Tween 20, 25 °C; EC50 from bound fraction. The note with it: one partner purified.

In assay [2] the target is T1, C-terminal GFP2-tagged β2-adrenergic …. As to the kind of experiment: MST; lysate of HEK-293 cells with β2-AR/GFP2 kept constant as fluorescent target, P3 titrated in 1:1 dilutions, in the presence of 10 µM isoproterenol; MST buffer with 0.05% Tween 20, 25 °C; EC50 from bound fraction. Conditions: one partner purified.

B1: P3, nanobody-derived peptide (NDP) of Nb71 (peptide)
peptide: EDTAVYYCNANWDLLSD
notes: 17 aa stretch of the nanobody Nb71 (amino acid residues 88-104, includes CDR3), picked by computational peptide scanning; numbers count on Nb71; source: synthetic peptide, custom-synthesized at Biomatik Corporation
As usually defined, the EC50 is the concentration that produces a half-maximal response. Take B1: the EC50 in assay [1] was determined as 58.2 ± 13.6 µM; in assay [2], 3.57 ± 0.81 µM.

The values are drawn from article PMC6851183, “Computational design and characterization of nanobody-derived peptides that stabilize the active conformation of the β2-adrenergic receptor (β2-AR)” (Scientific Reports, 2019).
